Results taken from article PMC10245680 (bioRxiv, 2023).

Legend:
[1] = target: recombinant murine uracil DNA glycosylase (UNG) (Mus musculus, UniProt P97931); assay: ELISA
[2] = target: vUNG expressed in MHV68-infected 3T12 cells (Murid herpesvirus 4 (MHV68 wild type …, UniProt P88984)); assay: flow cytometry on cells
[3] = target: viral UNG (vUNG) expressed in transfected 293 cells (Murid herpesvirus 4 (MHV68), isolate …, UniProt P88984); assay: immunostaining of cells or tissue

Sequence of recombinant murine uracil DNA glycosylase (UNG) (P97931 whole entry): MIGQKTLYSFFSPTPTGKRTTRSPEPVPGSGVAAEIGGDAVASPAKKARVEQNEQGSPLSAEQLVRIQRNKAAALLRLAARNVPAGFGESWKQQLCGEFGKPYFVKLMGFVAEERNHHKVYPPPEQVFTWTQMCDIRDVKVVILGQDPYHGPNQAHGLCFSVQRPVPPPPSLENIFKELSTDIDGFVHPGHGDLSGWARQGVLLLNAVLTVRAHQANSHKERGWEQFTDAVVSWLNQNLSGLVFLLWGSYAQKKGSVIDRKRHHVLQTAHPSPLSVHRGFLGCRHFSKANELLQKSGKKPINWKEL

B1: recombinant mouse anti-vUNG antibody (against MHV68 ORF46 / viral uracil DNA glycosylase) (antibody, V domains shown)
VH: QVQLQQPGAELVKPGASVKMSCKASGYTFTSYWITWVKQRPGQGLEWIGDIYPGSGSTKYNEKFKSKATLTVDTSSSTAYMQLSSLTSEDSAVYYCARLDYYYAMDYWGQGTSVTVSS
VL: DIVMTQSQKFMSTSVGDRVSVTCKASQNVGTNVAWYQQKPGQSPKALIYSASYRYSGVPDRFTGSGSGTDFTLTISNVPSEDLAEYFCQQYNNYPLTFGSGTKLEIK
[1]
  binding result: no binding
[2]
  binding result: binds
[3]
  binding result: binds
